Patent publication US9164103B2, “Monitoring and inhibiting human immunodeficiency virus infection by modulating HMGB1 dependent triggering of HIV-1 replication and persistence” (priority 2008, dated 2015)

Legend:
[1] = system: iDC; assay: Direct phenotypic maturation of iDCs (flow cytometry of maturation markers); type: cell-based, human
Excerpt: Co-staining with HLA-DR and CD86 specific antibodies allowed the identification of mature DCs (CD86^brightHLA-DR^bright). Data from a representative experiment out of three independent experiments are shown. […] The proportion of mDCs induced by LPS (DC0) (78.1% CD86^brightHLA-DR^bright) is shown as a positive control. […] These experiments have been performed on primary cells from a number of donors, and representative data from three of them are shown. When indicated, statistical analyses were made with the non parametric Mann-Whitney test. * p<0.05, ** p=0.02.
The maturation status of DCs was determined by flow cytometry with CD86 and HLA-DR—specific antibodies. […] (b) iDC (10^6 cells/ml) were cultured for 48 h with increasing concentrations (1-10 μg/ml) of rh-HMGB1. Cells were then stained with anti-CD86, -HLA-DR, -CD80, -CD83, DC-LAMP and -CD40 antibodies and analyzed by flow cytometry.

[2] = system: iDCs; assay: Cytokine and chemokine production by DCs (MAP/Luminex); type: cell-based, human; settings: iDCs 48 h, 1 or 10 μg/ml
Experimental: FIG. 3 (a)-(e). aNK-dependent maturation of HIV-1-infected iDCs is mediated by HMGB1 and involves RAGE. (a) Left panel: iDCs were cultured for 24 h either alone or with aNK cells, in the presence of blocking anti-HMGB1 antibodies (10 μg/ml) or glycyrrhizin (10 μg/ml). The maturation status of DCs was determined by flow cytometry with CD86 and HLA-DR—specific antibodies. Right panel: same experiment, but performed with HIV-1 infected iDCs. Data represent mean±sd of at least three independent experiments, and statistical comparisons were made with the non parametric Mann-Whitney test. * p<0.05. (b) iDC (10^6 cells/ml) were cultured for 48 h with increasing concentrations (1-10 μg/ml) of rh-HMGB1. Cells were then stained with anti-CD86, -HLA-DR, -CD80, -CD83, DC-LAMP and -CD40 antibodies and analyzed by flow cytometry. (c) Influence of rh-HMGB1 on cytokine and chemokine production (determined by MAP) by DCs. iDCs (10^6 cells/ml) were incubated for 48 h in medium or in presence of rh-HMGB1 (1 or 10 μg/ml). As a positive control, iDCs were stimulated with LPS (DC0). […] (e) iDC, DC0, uninfected or HIV-1-infected iDC cocultured for 24 h with aNK cells, were incubated with rh-HMGB1 (1 μg/ml) and subsequently stained with anti-RAGE antibodies and analyzed by flow cytometry. […]

[3] = system: RAGE; assay: Surface expression of RAGE on DCs (flow cytometry); type: cell-based, human; settings: uninfected iDCs, 1 μg/ml
Experimental: (d) Flow cytometry detection of surface expression of RAGE by iDCs, DC0, or iDCs incubated with rh-HMGB1 (1 μg/ml). iDCs were either non infected or infected with HIV-1 (1 ng/ml p24 for 3 h). (e) iDC, DC0, uninfected or HIV-1-infected iDC cocultured for 24 h with aNK cells, were incubated with rh-HMGB1 (1 μg/ml) and subsequently stained with anti-RAGE antibodies and analyzed by flow cytometry. NK cells were excluded from the analysis through the co-staining with CD3- and CD56-specific antibodies (CD3^−CD56^+).
The possible involvement of RAGE during NK-DC cross-talk was evaluated with the same approach, comparing RAGE expression on DCs cocultured with aNK cells and DC cultured alone.
Phenotypic analysis of DCs and characterization of their maturation stage was performed by flow cytometry. DCs were stained for 20 min at 4° C. with antibodies specific for CD80, CD83, CD86, HLA-DR, CD40, DC-LAMP or DC-SIGN (all antibodies from BD Biosciences, San Jose, Calif.) diluted in 100 μl of PBS/10% FCS/0.1% NaN3. In some experiments, antibody specific for HMGB1-receptor, RAGE (Abcam), was used to stain DCs. After two washings, cells were fixed in 1% PFA, immediately acquired on a FACScalibur (Becton Dickinson) and analyzed with Flow Jo software.

[4] = system: R5-HIV-1Ba-L; assay: HIV-1 replication in infected iDCs (p24 ELISA in culture supernatant); type: cell-based; settings: 3 days, 1 μg/ml
Experimental: FIGS. 6 (a), (b) and (c). Exogenous rh-HMGB1 triggers HIV-1 and HIV-2 replication in iDC. (a) HIV-1-infected iDC were cultured alone or in the presence of aNK cells for 3 days. Rh-HMGB1 (1 μg/ml) was added in some cultures. HIV replication was measured by p24 quantification in culture supernatant (b) HIV1-infected iDC were cultured alone or in the presence of aNK cells for 3 days. Blocking anti-HMGB1 antibodies (10 μg/ml) or glycyrrhizin (10 μg/ml) were added at culture initiation. HIV replication was measured by p24 quantification in culture supernatant. The mean±sd of three independent experiments is shown. Statistical comparisons were made with the non parametric Mann-Whitney test. * p<0.05; (c) HIV-2-infected iDC were cultured alone or in the presence of aNK cells for 3 days. Rh-HMGB1 (1 μg/ml) was added in some cultures. HIV replication was measured by p24 quantification in culture supernatant.
Exogenous HMGB1 was recently reported to increase HIV-1 replication in infected monocytic cell lines38, and to induce in vitro the reactivation of HIV-1 in PBMCs from HIV-1-infected patients under antiretroviral therapy39. Therefore, the question of the role of HMGB1 in the NK-dependent triggering of HIV replication in DCs was addressed. […] To investigate the influence of HMGB1 in the triggering of HIV-1 replication in infected-iDC-aNK cocultures, HMGB1-specific neutralizing antibodies or glycyrrhizin were added to these cocultures and p24 production was measured in the supernatant. […] They also indicate that aNK cell-dependent stimulation of HIV-1 replication in iDCs is mediated by HMGB1.
Virus stock preparation was prepared by amplification of R5-HIV-1Ba-L on MDM from healthy donors. Viral stock was then clarified by centrifugation prior to determination of HIV1 p24 concentration. iDCs were plated in 96-well culture plates at 200,000 cells/well and incubated for 3 hours at 37° C. in a 5% CO2 atmosphere with R5-HIV-1BAL at various concentrations (0.001 to 10 ng p24/ml). Cells were harvested, washed four times with media containing 10% FCS and, when indicated, rNK or aNK cells were added at a NK:DC ratio of 1:5, unless otherwise indicated. NK-DC cocultures lasted 24 h before analysis of the maturation stage of DCs and/or quantification of viral production. In some experiments (FIG. 6), HIV-1 infected iDCs were incubated alone or with aNK cells for 3 days, in the presence of rh-HMGB1 (1 μg/ml) (R&DSystems), and in some cultures in the presence of rabbit antiHMGB1 Abs (10 μg/ml) (Abcam, Cambridge, UK) or Glycyrrhizin (10 μg/ml).
The concentration of HIV-1 in the supernatant of infected cell cultures was determined by measuring the amount of p24 protein by ELISA (Ingen, Belgium). DNA from cells was extracted using the GIAamp DNA Blood Mini Kit (Qiagen, Basel, Switzerland) and quantified HIV-1 proviral load by RT-PCR as described previously54. The frequency of HIV-1-infected cells was determined by flow cytometry to detect intracellular p24 molecule. Cells were surface stained with antibodies specific for CD40 (BD Biosciences, San Jose, Calif.) to target DC and intracellular stained with p24-specific antibodies (Coulter). Stained cells were fixed in 1% PFA, immediately acquired on a FACScalibur (Becton Dickinson) and analyzed with FlowJo software. In some experiments infected DCs were imaged, after immunofluorescence, by laser scanning confocal microscopy.

[5] = system: HIV-2; assay: HIV-2 replication in infected iDCs (p24 ELISA in culture supernatant); type: cell-based; settings: HIV-2-infected iDC, day 3
Experimental: FIGS. 6 (a), (b) and (c). Exogenous rh-HMGB1 triggers HIV-1 and HIV-2 replication in iDC. (a) HIV-1-infected iDC were cultured alone or in the presence of aNK cells for 3 days. Rh-HMGB1 (1 μg/ml) was added in some cultures. HIV replication was measured by p24 quantification in culture supernatant (b) HIV1-infected iDC were cultured alone or in the presence of aNK cells for 3 days. Blocking anti-HMGB1 antibodies (10 μg/ml) or glycyrrhizin (10 μg/ml) were added at culture initiation. HIV replication was measured by p24 quantification in culture supernatant. The mean±sd of three independent experiments is shown. Statistical comparisons were made with the non parametric Mann-Whitney test. * p<0.05; (c) HIV-2-infected iDC were cultured alone or in the presence of aNK cells for 3 days. Rh-HMGB1 (1 μg/ml) was added in some cultures. HIV replication was measured by p24 quantification in culture supernatant. […]
2—NK-DC cocultures: cells were harvested, washed three times with RPMI containing 10% FCS and, when indicated, aNK cells were added at a NK:DC ratio of 1:5. […] NK-DC cocultures lasted 3 to 7 days before quantification of viral production in culture supernatants.
3—Quantification of HIV-2 viral production: the concentration of HIV-2 particles in the supernatants was determined with the p24 ELISA kit (Ingen, Belgium).

B1: rh-HMGB1: recombinant human HMGB1 protein (R&D Systems), added exogenously (protein, UniProt P09429 1-215, looked up)
High mobility group protein B1: MGKGDPKKPRGKMSSYAFFVQTCREEHKKKHPDASVNFSEFSKKCSERWKTMSAKEKGKFEDMAKADKARYEREMKTYIPPKGETKKKFKDPNAPKRPPSAFFLFCSEYRPKIKGEHPGLSIGDVAKKLGEMWNNTAADDKQPYEKKAAKLKEKYEKDIAAYRAKGKPDAAKKGVVKAEKSKKKKEEEEDEEDEEDEEEEEDEEDEDEEEDDDDE
[1]; 10 μg/ml, 48 h of culture, medium alone 65%
  percentage of CD86bright HLA-DRbright DCs: 71%
[1]; 1 to 10 μg/ml, 24 h, similar at 48 h
  phenotypic maturation of iDC: did not induce phenotypic maturation of iDC
[1]; rh-HMGB1-treated DCs compared with mDC (DC0)
  expression of CD80, CD83 and DC-lamp: not fully mature
[2]
  release of the chemokines MCP1, MIP-1α, MIP-1β and IL-8: increased release
[3]
  RAGE expression on iDCs: down-regulation of RAGE
[4]; HIV-1-infected iDC cocultured with aNK cells
  p24 production: significant stimulatory effect
[4]; HIV-1-infected iDC cultured alone
  production of p24 in culture supernatants: enhancing dramatically the production of p24
[5]
  HIV-2 viral replication (p24): slight increase in viral replication
